Assay results from US20110135573A1 (DYAX, published 2011).

Tests used:
h-MMP-9/h-TIMP-1 complex [1] = target: T1, h-MMP-9/h-TIMP-1 complex (human, UniProt P14780 107-457; P01033 24-207, limits assumed); assay: SPR (Biacore 3000), antibody captured via anti-Fc
T1 construct: Preformed non-covalent complex flowed over the antibody surfaces; also called huTIMP-1/cat-huMMP-9; h-TIMP-1/h-MMP-9 complex
Method: (§1) Experiments were performed at 25° C. with the help of a Biacore 3000 instrument. The MMP-9 binding protein (M0166F10) and the M0237-D02 antibody were coated to a CM5 chip either via standard amine coupling or using an anti-Fc antibody surface. Then either the active, human MMP-9 catalytic domain (BIOMOL, SE-244), the human pro-MMP-9 (R&D, 911-MP), the human TIMP-1 (R&D, 970-TM) or a h-MMP-9/h-TIMP-1 complex were flowed over the antibody surfaces, and binding was recorded.
(§2) It was shown that the human MMP-9 catalytic domain binds to M0166-F10, whether this antibody is directly captured via amine coupling or captured with an anti-Fc antibody surface.

[2] = target: T2, Human MMP-9 catalytic domain (BIOMOL, SE-244) (human, UniProt P14780 107-457, limits assumed); assay: plot of kobs against antibody concentration, inhibition progress curves
T2 construct: domain: catalytic domain; also called Cat-huMMP-9; cat-huMMP-9
T2 sequence (P14780 107-457 limits assumed): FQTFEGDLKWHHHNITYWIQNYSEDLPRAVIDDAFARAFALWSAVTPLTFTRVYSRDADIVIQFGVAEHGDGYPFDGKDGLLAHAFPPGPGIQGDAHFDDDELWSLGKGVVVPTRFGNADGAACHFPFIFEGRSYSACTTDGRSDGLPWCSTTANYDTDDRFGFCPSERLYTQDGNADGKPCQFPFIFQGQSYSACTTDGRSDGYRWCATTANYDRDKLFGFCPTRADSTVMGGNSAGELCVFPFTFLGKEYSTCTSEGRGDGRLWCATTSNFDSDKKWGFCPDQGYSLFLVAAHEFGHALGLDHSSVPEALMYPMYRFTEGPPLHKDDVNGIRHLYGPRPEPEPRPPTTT

[3] = target: T3, human MMP-2 (Biomol #SE-237) (human, UniProt P08253 110-452, limits assumed); assay: Ki,app, enzyme inhibition assay (fluorogenic peptide substrate), IgG
T3 construct: also called hMMP-2
T3 sequence (P08253 110-452 limits assumed): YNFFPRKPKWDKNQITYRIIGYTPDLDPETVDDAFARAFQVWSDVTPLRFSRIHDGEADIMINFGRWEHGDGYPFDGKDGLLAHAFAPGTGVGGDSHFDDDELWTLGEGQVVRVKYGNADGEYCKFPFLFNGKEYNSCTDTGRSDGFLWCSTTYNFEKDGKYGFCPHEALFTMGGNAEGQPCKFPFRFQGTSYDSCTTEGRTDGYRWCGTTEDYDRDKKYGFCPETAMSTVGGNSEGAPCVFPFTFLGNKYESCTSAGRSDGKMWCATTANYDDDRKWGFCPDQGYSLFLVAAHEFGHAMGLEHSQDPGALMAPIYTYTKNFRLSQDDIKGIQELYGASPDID

[4] = target: T4, Mouse MMP-9 (R&D, 909-MM), APMA-activated (mouse, UniProt P41245 108-730, limits assumed); assay: Ki,app, enzyme inhibition assay (fluorogenic peptide substrate), IgG; told as Ki of 1.3±0.1 nM in Example 2
T4 construct: also called mMMP-9; mouse MMP-9 (R&D Systems #909-MM-010)
T4 sequence (P41245 108-730 limits assumed): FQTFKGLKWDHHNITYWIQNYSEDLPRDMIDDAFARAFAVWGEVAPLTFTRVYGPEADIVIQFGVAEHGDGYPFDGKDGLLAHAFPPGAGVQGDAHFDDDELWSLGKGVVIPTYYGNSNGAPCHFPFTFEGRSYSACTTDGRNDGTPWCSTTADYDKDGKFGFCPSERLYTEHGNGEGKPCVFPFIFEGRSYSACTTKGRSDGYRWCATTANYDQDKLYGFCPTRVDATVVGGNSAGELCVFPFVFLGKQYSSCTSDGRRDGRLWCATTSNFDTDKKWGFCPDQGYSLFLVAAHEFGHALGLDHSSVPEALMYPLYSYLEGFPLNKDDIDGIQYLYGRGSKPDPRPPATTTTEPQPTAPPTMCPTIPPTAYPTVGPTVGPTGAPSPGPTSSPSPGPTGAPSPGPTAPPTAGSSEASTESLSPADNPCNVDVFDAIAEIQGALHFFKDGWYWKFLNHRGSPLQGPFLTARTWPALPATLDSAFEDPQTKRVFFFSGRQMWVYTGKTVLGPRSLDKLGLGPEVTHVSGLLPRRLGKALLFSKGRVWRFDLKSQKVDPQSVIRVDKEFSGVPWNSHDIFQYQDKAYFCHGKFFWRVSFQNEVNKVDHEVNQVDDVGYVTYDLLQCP
Method: (§3) Materials: [0495] Substrate: Mca-KPLGL-Dap(Dnp)-AR-NH₂ (M-2350) from BACHEM (521575). A 10 mM stock solution was prepared in DMSO. [0496] Enzymes: [0497] Human MMP-9 catalytic domain (BIOMOL, SE-244). Enzyme concentration was measured by titration with TIMP-1 (2522-104) [0498] Mouse MMP-9 (R&D, 909-MM), APMA-activated. [0499] M0237-D02 hIgG1: 2517-014. Dialysed against TCN. [0500] TCNB: 50 mM Tris/HCl, 10 mM CaCl₂, 150 mM NaC, […] Brij 35, pH 7.5. [0501] -96-well black plates from Perkin Elmer (6005270) [0502] Spectramax M2e to measure fluorescence emission of the substrate upon hydrolysis (temperature control set at 30° C.; λexc=328 nm and λₑₘ=393 nm)
(§4) The enzyme (final concentration=0.23 and 0.17 nM for the human and mouse MMP-9, respectively) was preincubated with various concentrations (0-50 nM) of M0237-D02 for 1 h at 30° C. The substrate was then added to a final concentration ranging from 5 to 40 μM and initial rates were recorded.

[5] = target: T2, Human MMP-9 catalytic domain (BIOMOL, …); assay: Ki,app, enzyme inhibition assay (fluorogenic peptide substrate), IgG; told as Ki of 0.92±0.04 nM in Example 2
Method: as §3, §4

MMP-1 (Biomol SE-180) = target: T5, MMP-1 (Biomol SE-180) (UniProt P03956 100-269, limits assumed); assay: cell-based or functional assay
T5 sequence (looked up): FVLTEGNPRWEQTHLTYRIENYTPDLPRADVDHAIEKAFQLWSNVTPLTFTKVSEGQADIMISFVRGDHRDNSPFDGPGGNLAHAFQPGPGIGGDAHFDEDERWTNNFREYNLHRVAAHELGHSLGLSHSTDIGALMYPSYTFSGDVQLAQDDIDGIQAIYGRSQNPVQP

[6] = target: MMP-3 (R&D Systems #513-MP) (UniProt P08254 18-477, limits assumed); assay: cell-based or functional assay
Sequence of MMP-3 (R&D Systems #513-MP) (P08254 18-477 limits assumed): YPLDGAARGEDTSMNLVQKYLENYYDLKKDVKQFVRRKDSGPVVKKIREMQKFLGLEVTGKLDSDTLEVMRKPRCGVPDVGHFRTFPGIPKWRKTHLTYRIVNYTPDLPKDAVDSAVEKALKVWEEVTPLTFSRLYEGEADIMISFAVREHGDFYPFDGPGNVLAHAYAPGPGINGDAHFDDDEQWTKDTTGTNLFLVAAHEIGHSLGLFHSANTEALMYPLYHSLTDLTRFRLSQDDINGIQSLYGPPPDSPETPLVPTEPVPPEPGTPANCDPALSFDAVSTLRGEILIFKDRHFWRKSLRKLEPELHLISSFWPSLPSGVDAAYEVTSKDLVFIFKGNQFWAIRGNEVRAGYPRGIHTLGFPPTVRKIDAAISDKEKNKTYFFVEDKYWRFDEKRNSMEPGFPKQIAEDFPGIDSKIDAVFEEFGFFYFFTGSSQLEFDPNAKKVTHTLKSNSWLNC

MMP-7 (Biomol SE-181) = target: T6, MMP-7 (Biomol SE-181) (UniProt P09237 95-267); assay: cell-based or functional assay
T6 sequence (looked up): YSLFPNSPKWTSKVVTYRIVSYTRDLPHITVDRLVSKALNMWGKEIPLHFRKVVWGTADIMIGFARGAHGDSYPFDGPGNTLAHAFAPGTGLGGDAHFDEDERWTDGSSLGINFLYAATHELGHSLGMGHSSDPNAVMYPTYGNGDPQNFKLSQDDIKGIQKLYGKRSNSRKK

MMP-8 (Biomol SE-255) = MMP-8 (Biomol SE-255) (UniProt P22894 100-262, limits assumed); assay: cell-based or functional assay
Sequence of MMP-8 (Biomol SE-255) (P22894 100-262 limits assumed): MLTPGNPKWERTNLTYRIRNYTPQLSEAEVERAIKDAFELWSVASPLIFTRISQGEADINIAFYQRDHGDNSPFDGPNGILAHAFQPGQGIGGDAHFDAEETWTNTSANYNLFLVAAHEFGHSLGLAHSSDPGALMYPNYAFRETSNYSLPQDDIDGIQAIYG

MMP-10 (Biomol SE-329) = MMP-10 (Biomol SE-329) (UniProt P09238 99-265, limits assumed); assay: cell-based or functional assay
Sequence of MMP-10 (Biomol SE-329) (P09238 99-265 limits assumed): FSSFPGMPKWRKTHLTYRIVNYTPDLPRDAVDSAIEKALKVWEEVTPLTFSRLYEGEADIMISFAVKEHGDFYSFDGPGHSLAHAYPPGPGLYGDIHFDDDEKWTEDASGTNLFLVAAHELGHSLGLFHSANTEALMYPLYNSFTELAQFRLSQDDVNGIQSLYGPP

MMP-12 (Biomol SE-138) = MMP-12 (Biomol SE-138) (UniProt P39900 106-263, limits assumed); assay: cell-based or functional assay
Sequence of MMP-12 (Biomol SE-138) (P39900 106-263 limits assumed): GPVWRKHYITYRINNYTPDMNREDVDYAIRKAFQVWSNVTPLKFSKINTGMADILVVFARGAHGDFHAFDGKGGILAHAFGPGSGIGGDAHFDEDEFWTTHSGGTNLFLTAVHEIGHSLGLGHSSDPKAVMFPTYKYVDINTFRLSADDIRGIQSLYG

MMP-13 (Biomol SE-246) = MMP-13 (Biomol SE-246) (UniProt P45452 104-274); assay: cell-based or functional assay
MMP-14 (Biomol SE-259) = MMP-14 (Biomol SE-259) (UniProt P50281 112-284, limits assumed); assay: cell-based or functional assay
[7] = target: MMP-15 (Calbiochem #475938) (UniProt P51511 132-304, limits assumed); assay: cell-based or functional assay
Sequence of MMP-15 (Calbiochem #475938) (P51511 132-304 limits assumed): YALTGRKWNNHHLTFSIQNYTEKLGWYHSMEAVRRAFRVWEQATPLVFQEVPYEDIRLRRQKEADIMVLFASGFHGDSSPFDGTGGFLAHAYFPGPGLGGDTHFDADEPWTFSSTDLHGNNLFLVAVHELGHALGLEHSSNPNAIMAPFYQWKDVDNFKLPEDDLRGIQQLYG

[8] = target: MMP-16 (Calbiochem #475939) (UniProt P51512 120-292, limits assumed); assay: cell-based or functional assay
Sequence of MMP-16 (Calbiochem #475939) (P51512 120-292 limits assumed): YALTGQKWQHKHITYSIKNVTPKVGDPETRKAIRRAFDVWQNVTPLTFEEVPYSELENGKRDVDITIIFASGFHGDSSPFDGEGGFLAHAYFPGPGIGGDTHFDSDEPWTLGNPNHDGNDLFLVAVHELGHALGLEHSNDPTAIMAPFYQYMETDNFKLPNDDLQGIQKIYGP

[9] = target: T7, MMP-26 (Dyax prep #020209) (UniProt Q9NRE1 90-261, limits assumed); assay: cell-based or functional assay
T7 sequence (looked up): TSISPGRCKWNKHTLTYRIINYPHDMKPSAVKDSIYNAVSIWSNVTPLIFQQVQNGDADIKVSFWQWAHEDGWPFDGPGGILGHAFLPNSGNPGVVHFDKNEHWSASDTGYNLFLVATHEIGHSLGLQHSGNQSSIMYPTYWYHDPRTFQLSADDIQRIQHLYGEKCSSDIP

TACE (R&D Systems) = TACE (R&D Systems) (UniProt P78536 215-671, limits assumed); assay: cell-based or functional assay
Sequence of TACE (R&D Systems) (P78536 215-671 limits assumed): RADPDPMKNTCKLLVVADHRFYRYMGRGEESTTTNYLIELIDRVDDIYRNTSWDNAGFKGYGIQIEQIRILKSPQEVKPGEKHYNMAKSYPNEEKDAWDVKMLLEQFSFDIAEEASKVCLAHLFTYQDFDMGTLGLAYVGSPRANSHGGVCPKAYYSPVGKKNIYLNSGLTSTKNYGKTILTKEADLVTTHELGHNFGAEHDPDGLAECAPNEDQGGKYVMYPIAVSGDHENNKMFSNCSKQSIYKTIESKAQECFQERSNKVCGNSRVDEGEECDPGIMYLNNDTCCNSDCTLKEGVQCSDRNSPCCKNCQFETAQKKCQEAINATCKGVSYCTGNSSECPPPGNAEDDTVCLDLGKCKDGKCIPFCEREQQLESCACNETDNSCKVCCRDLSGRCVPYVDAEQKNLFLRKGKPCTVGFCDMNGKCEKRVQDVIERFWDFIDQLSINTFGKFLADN

[10] = target: T2, Human MMP-9 catalytic domain (BIOMOL, …); assay: Ki,app, enzyme inhibition assay (fluorogenic peptide substrate), small-scale sFab
[11] = target: T2, Human MMP-9 catalytic domain (BIOMOL, …); assay: Ki,app, enzyme inhibition assay (fluorogenic peptide substrate), medium-scale sFab
[12] = target: T4, Mouse MMP-9 (R&D, 909-MM), …; assay: as above
[13] = target: T3, human MMP-2 (Biomol #SE-237); assay: as above
MMP-9 (PMA-activated) = MMP-9 (PMA-activated) (Homo sapiens (Human), UniProt P14780 107-707, Biotinylated for the phage selection; the biotin sites are not stated and the letters do not carry them.); assay: apparent KD; method not stated
Sequence of MMP-9 (PMA-activated) (P14780 107-707 limits assumed, form in doubt): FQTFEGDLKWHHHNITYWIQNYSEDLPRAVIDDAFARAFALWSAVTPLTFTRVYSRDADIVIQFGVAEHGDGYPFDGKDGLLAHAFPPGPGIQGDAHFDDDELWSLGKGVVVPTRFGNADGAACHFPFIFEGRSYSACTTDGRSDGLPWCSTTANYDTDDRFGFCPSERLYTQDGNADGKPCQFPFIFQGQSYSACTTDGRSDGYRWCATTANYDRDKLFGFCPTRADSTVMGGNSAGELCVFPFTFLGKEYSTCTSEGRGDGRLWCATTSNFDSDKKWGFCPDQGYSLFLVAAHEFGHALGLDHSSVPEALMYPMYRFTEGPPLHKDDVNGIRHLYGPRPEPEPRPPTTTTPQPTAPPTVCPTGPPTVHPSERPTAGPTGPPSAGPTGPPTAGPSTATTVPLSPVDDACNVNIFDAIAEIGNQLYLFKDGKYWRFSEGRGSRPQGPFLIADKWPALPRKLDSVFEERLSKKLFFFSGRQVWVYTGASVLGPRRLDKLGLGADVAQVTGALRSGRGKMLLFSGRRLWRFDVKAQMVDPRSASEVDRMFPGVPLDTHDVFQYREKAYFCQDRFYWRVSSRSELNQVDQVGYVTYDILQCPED

[14] = target: T8, human pro-MMP-9 (R&D, 911-MP) (human, UniProt P14780 20-707); assay: SPR (Biacore 3000), antibody amine-coupled (direct capture)
T8 construct: Pro-enzyme; also called Pro-huMMP-9
T8 sequence (P14780 20-707): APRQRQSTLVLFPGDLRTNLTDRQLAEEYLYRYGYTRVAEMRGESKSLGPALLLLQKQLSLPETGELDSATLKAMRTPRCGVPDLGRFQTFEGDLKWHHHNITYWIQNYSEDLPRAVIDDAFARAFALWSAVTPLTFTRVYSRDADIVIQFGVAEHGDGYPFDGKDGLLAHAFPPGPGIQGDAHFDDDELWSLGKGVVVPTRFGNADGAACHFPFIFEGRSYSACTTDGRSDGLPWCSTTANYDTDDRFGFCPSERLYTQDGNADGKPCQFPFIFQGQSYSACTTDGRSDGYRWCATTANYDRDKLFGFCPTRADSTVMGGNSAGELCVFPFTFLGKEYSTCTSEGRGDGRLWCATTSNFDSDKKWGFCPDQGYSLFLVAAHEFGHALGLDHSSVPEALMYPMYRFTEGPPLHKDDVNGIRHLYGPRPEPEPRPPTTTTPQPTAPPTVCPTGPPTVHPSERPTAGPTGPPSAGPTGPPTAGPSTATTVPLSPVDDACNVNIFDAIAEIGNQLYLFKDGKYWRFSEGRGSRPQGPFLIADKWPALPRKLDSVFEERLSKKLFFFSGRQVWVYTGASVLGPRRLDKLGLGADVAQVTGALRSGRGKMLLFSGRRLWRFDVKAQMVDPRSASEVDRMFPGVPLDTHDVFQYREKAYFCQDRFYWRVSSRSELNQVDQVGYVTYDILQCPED
Method: as §1, §2

[15] = target: T9, human TIMP-1 (R&D, 970-TM) (human, UniProt P01033 24-207); assay: as above
T9 construct: also called huTIMP-1; h-TIMP-1
T9 sequence (P01033 24-207 limits assumed): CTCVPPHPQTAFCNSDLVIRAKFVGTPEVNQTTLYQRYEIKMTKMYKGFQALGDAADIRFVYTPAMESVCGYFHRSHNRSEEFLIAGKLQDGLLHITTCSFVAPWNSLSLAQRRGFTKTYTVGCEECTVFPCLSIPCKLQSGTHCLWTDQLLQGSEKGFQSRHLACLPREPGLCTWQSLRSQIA
Method: as §1, §2

h-MMP-9/h-TIMP-1 complex [16] = target: T1, h-MMP-9/h-TIMP-1 complex; assay: as above
Method: as §1, §2

T1 sequence (P14780 107-457 limits assumed, chain 1 of 2): as the sequence (P14780 107-457 limits assumed) above
T1 sequence (P01033 24-207 limits assumed, chain 2 of 2): as the sequence (P01033 24-207 limits assumed) above

B1: 539A-M0237-D02 hIgG1 (antibody, V domains shown)
VH: EVQLLESGGGLVQPGGSLRLSCAASGFTFSQYPMWWVRQAPGKGLEWVSYIVPSGGRTYYADSVKGRFTISRDNSKNTLYLQMNSLRAEDTAVYYCAKDRAYGDYVGWNGFDYWGQGTLVTVSS
VL: DIQMTQSPATLSLSPGERATLSCRASQSISSFLAWYQQKPGQAPRLLIYDASYRATGIPARFSGSGSGTDFTLTISSLEPEDYAVYYCQQRGNWPITFGQGTRLEIK
notes: Tested as human IgG1 (parental); also called M237-D02; DL8
binding result (h-MMP-9/h-TIMP-1 complex [1]): no binding | koff [2]: ~0.0004 s⁻¹ | kon [2]: ~70000 M⁻¹ s⁻¹ | Ki [3]: 17 nM | Ki [4]: 1.3 nM | Ki [5]: 0.92 nM

B2: M0279-B02 (Fab, V domains shown)
VH: B1 VH
VL: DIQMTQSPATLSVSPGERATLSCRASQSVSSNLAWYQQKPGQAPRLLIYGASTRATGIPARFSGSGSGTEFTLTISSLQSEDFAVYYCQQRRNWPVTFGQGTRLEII
notes: sFab; variable domains only; also called M279-B02
IC50 (enzyme inhibition) (MMP-1 (Biomol SE-180)): > 1000 nM | IC50 (enzyme inhibition) [6]: > 1000 nM | IC50 (enzyme inhibition) (MMP-7 (Biomol SE-181)): > 1000 nM | IC50 (enzyme inhibition) (MMP-8 (Biomol SE-255)): > 1000 nM | IC50 (enzyme inhibition) (MMP-10 (Biomol SE-329)): > 1000 nM | IC50 (enzyme inhibition) (MMP-12 (Biomol SE-138)): > 1000 nM | IC50 (enzyme inhibition) (MMP-13 (Biomol SE-246)): > 1000 nM | IC50 (enzyme inhibition) (MMP-14 (Biomol SE-259)): > 1000 nM | IC50 (enzyme inhibition) [7]: > 1000 nM | IC50 (enzyme inhibition) [8]: > 1000 nM | IC50 (enzyme inhibition) [9]: > 1000 nM | IC50 (enzyme inhibition) (TACE (R&D Systems)): > 1000 nM | Ki [10]: 2.6 nM | Ki [11]: 6.5 nM | Ki [12]: 64 nM | Ki [13]: > 1000 nM

B3: M0078-G07 (Fab, V domains shown)
VH: EVQLLESGGGLVQPGGSLRLSCAASGFTFSSYTMEWVRQAPGKGLEWVSWISPSGGYTFYADSVKGRFTISRDNSKNTLYLQMNSLRAEDTALYYCARGYSYGSIDLWGRGTLVTVSS
VL: DIQMTQSPGTLSVSPGERATLSCRASQSVSSDLAWYQHKPGQAPRLLIYGVSTKATGVPARFSGSGSGTEFTLTISSLQSEDLAVYYCQQYHNWPPLTFGGGTKVEIK
notes: variable domains only; also called Fab M0078-G07
Kd (MMP-9 (PMA-activated)): 3.1 nM

B4: M0076-D03 (Fab, V domains shown)
VH: EVQLLESGGGLVQPGGSLRLSCAASGFTFSLYRMNWVRQAPGKGLEWVSYIGSSGGATAYADSVKGRFTISRDNSKNTLYLQMNSLRAEDTAVYYCARGAWYLDSWGQGTLVTVSS
VL: DIQMTQSPSSLSASVGDRVTITCRASQGIRNDLDWYQQKPGTAPKRLIYSASNLQSGVPSRFSGSGSGTEFTLTISNLQPEDLATYFCLQHNSFPLTFGQGTKVEIK
notes: variable domains only
Kd (MMP-9 (PMA-activated)): 5.9 nM

B5: 539A-M0166-F10 (antibody, V domains shown)
VH: EVQLLESGGGLVQPGGSLRLSCAASGFTFSPYLMNWVRQAPGKGLEWVSSIYSSGGGTGYADSVKGRFTISRDNSKNTLYLQMNSLRAEDTAVYYCARIYHSSSGPFYGMDVWGQGTTVTVSS
VL: QSELTQPPSASAAPGQRVTISCSGSSSNIGSNTVTWYQKLPGTAPKLLIYNNYERPSGVPARFSGSKSGTSASLAISGLQSEDEADYYCATWDDSLIANYVFGSGTKVTVLG
notes: also called DL15
binding result [14]: no binding | binding result [15]: no binding | binding result (h-MMP-9/h-TIMP-1 complex [16]): no binding
